The values that follow come from US20130171677A1 (BOARD OF SUPERVISORS OF THE UNIVERSITY OF LOUISIANA SYSTEM, published 2013).

The data set concerns the molecule itself. The data set can be described thus: size exclusion chromatography of purified recombinant TeCpcS (complex 53.0 kDa against ~24.0 kDa calculated for HT-TeCpcS). As to the method: In order to determine the molecular mass of TeCpcS in its native state, the purified, recombinant TeCpcS was subjected to size exclusion chromatography. The molecular mass of this complex was calculated to be 53.0 kDa, and the calculated molecular mass of HT-TeCpcS is ˜24.0 kDa.

B1: Bilin lyase CpcS from Thermosynechococcus elongatus BP1 (TeCpcS), His-tagged (enzyme)
chain: MCIGMDIRDFFAQSAGRWFSQRTSHHLAFKQTESGKSQLTIELLSVDDPAVIALCQQYDMDPAWAVCGARVSWDGTMEWDNEKHEGSTVLVPIMDQGSRMEGKLLREMGYAEKAPVAGRFSMGSDGALTLITEYETIYSEERLWFASPNLRLRTSILKRFGGFSMASFCSEIRLGVTQPANS
notes: also called HT-TeCpcS; CpcS-III; not shown: C-terminal His-tag from the pET22c construct used for crystallization and size-exclusion chromatography
Turning to B1, the binding result is recorded as “binds”.
